From the RNAGym collection of RNA variant scans (doi:10.7554/elife.80360)

B1: Twister Ribozyme (parent)
chain: AACACUGCCAAUGCCGGUCCCAAGCCCGGAUAAAAGUGGAGGGGGCGG

Variants of: B1
Test: self-cleavage, relative activity (ratio to wild type); higher = more cleavage; co-transcriptional

Variant | self-cleavage
AACACUGCCAAUGCCGGUGCCAAGCCCGGAUAAAAGUCGAGGGGGCGG [C19G G38C] | 0.152
AACACUGCCAAUGCCGGUGCCAAGCCCGGAUAAAAGUUGAGGGGGCGG [C19G G38U] | 0.0929
AACACUGCCAAUGCCGGUACCAAGCCCGGAUAAAAGUGGAGGGGCCGG [C19A G45C] | 0.233
AACACUGCCAAUGCCGGUAUCAAGCCCGGAUAAAAGUGGAGGGGGCGG [C19A C20U] | 0.0818
AACACUGCCAAUGCCGGUAACAAGCCCGGAUAAAAGUGGAGGGGGCGG [C19A C20A] | 0.0769
AACACUGCCAAUGCCGGUAGCAAGCCCGGAUAAAAGUGGAGGGGGCGG [C19A C20G] | 0.093
AACACUGCCAAUGCCGGUACCAAGCCCGGAUAAACGUGGAGGGGGCGG [C19A A35C] | 0.313
AACACUGCCAAUGCCGGUACCAAGCCCGGAUAAAUGUGGAGGGGGCGG [C19A A35U] | 0.29
AACACUGCCAAUGCCGGUACCAAGCCCGGAUAAAAGUGGAAGGGGCGG [C19A G41A] | 0.0916
AACACUGCCAAUGCCGGUGCCAAGCCCGGAUAAAAGUGGAGGGGGCUG [C19G G47U] | 0.138
AACACUGCCAAUGCCGGGCCCAAGCCCGGAUAAAAGUGGAGGGAGCGG [U18G G44A] | 0.0959
AACACUGCCAAUGCCGGUACGAAGCCCGGAUAAAAGUGGAGGGGGCGG [C19A C21G] | 0.0812
AACACUGCCAAUGCCGGUACAAAGCCCGGAUAAAAGUGGAGGGGGCGG [C19A C21A] | 0.0702
AACACUGCCAAUGCCGGUGCCAAUCCCGGAUAAAAGUGGAGGGGGCGG [C19G G24U] | 0.0534
AACACUGCCAAUGCCGGUACCAAGCCCGGAUAACAGUGGAGGGGGCGG [C19A A34C] | 0.0755
AACACUGCCAAUGCCGGUACCAAGCCCGGAUAAGAGUGGAGGGGGCGG [C19A A34G] | 0.101
AACACUGCCAAUGCCGGUACCAAGCCCGGAUAAAAGUGGAGGGGGUGG [C19A C46U] | 0.304
AACACUGCCAAUGCCGGUACCAAGCCCGGAUAAAAGUGGAGGGGGGGG [C19A C46G] | 0.177
AACACUGCCAAUGCCGGUGCCAAGCCCGGAUAAAAGUGGAGCGGGCGG [C19G G42C] | 0.139
AACACUGCCAAUGCCGGUGCCAAGCCCGGAUAAAAGUGGAGUGGGCGG [C19G G42U] | 0.0912
AACACUGCCAAUGCCGGUGCCAAGCCCGGAUAAAUGUGGAGGGGGCGG [C19G A35U] | 0.34
AACACUGCCAAUGCCGGUGCCAAGCCCGGAUAAACGUGGAGGGGGCGG [C19G A35C] | 0.393
AACACUGCCAAUGCCGGUACCAAGCCCGGAUAAAAGUGGAGGGUGCGG [C19A G44U] | 0.679
AACACUGCCAAUGCCGGUACCAAGCCCGGAUAAAAGUGGAGGGCGCGG [C19A G44C] | 0.746
AACACUGCCAAUGCCGGUGCCAAGCCCGGAUAAAAGUGGAGGAGGCGG [C19G G43A] | 0.242
AACACUGCCAAUGCCGGUGCCAAGCCCGGAUAAAAGUGGAGGCGGCGG [C19G G43C] | 0.711
AACACUGCCAAUGCCGGUACCAAGCCCGGAUAAAAGUGUAGGGGGCGG [C19A G39U] | 0.124

Variant | self-cleavage
AACACUGCCAAUGCCGGUGCCAAGCCCGAAUAAAAGUGGAGGGGGCGG [C19G G29A] | 0.258
AACACUGCCAAUGCCGGUACCAAGCCCGCAUAAAAGUGGAGGGGGCGG [C19A G29C] | 0.0998
AACACUGCCAAUGCCGGUACCAAGCCCGUAUAAAAGUGGAGGGGGCGG [C19A G29U] | 0.207
AACACUGCCAAUGCCGGUACCAAGCCCGGAUAGAAGUGGAGGGGGCGG [C19A A33G] | 0.155
AACACUGCCAAUGCCGGUACCAAGCCCGGAUAAAAGUGGAGGGGGCGA [C19A G48A] | 0.161
AACACUGCCAAUGCCGGUACCAAGCCCGGAUAAAAGUGGAGGGGGCGC [C19A G48C] | 0.149
AACACUGCCAAUGCCGGUGCCUAGCCCGGAUAAAAGUGGAGGGGGCGG [C19G A22U] | 0.0871
AACACUGCCAAUGCCGGUGCCCAGCCCGGAUAAAAGUGGAGGGGGCGG [C19G A22C] | 0.219
AACACUGCCAAUGCCGGUACCAAGCCCGGAUGAAAGUGGAGGGGGCGG [C19A A32G] | 0.177
AACACUGCCAAUGCCGGUGCCAUGCCCGGAUAAAAGUGGAGGGGGCGG [C19G A23U] | 0.11
AACACUGCCAAUGCCGGUGCCAAGCCCGGAUAAAAGUGGAGGGGGUGG [C19G C46U] | 0.359
AACACUGCCAAUGCCGGUGCCAAGCCCGGAUAAAAGUGGAGGGGGGGG [C19G C46G] | 0.165
AACACUGCCAAUGCCGGUACCAAGCCCGGCUAAAAGUGGAGGGGGCGG [C19A A30C] | 0.124
AACACUGCCAAUGCCGGUACCGAGCCCGGAUAAAAGUGGAGGGGGCGG [C19A A22G] | 0.0827
AACACUGCCAAUGCCGGUGCCAAGCCCGGAUAAAAGUGGAGGGAGCGG [C19G G44A] | 0.351
AACACUGCCAAUGCCGGUACCAAGCCCGGAUAAAAUUGGAGGGGGCGG [C19A G36U] | 0.0959
AACACUGCCAAUGCCGGUACCAAGCCCGGAUAAAACUGGAGGGGGCGG [C19A G36C] | 0.0909
AACACUGCCAAUGCCGGUUCCAAGCCCGGAUACAAGUGGAGGGGGCGG [C19U A33C] | 0.795
AACACUGCCAAUGCCGGUGCCAAGCCCGGAUCAAAGUGGAGGGGGCGG [C19G A32C] | 0.386
AACACUGCCAAUGCCGGUGCCAAGCCCGGAUUAAAGUGGAGGGGGCGG [C19G A32U] | 0.287
AACACUGCCAAUGCCGGGCCCAAGCCCGGAUAAAAGGGGAGGGGGCGG [U18G U37G] | 0.0758
AACACUGCCAAUGCCGGGCCCAAGCCCGGAUAAAAGAGGAGGGGGCGG [U18G U37A] | 0.063
AACACUGCCAAUGCCGGGCCCAAGCCCGGAUAAAAGUGUAGGGGGCGG [U18G G39U] | 0.0734
AACACUGCCAAUGCCGGGCCCAAGCCCGGAUAAAAGUGAAGGGGGCGG [U18G G39A] | 0.107
AACACUGCCAAUGCCGGGCCCAAGCCCGGAUAAAAGUGGAGUGGGCGG [U18G G42U] | 0.0585
AACACUGCCAAUGCCGGGCCCAAGCCCGGAUAAAAGUGGAGAGGGCGG [U18G G42A] | 0.0696
AACACUGCCAAUGCCGGGCCCAAGCCCGGAUAAAAGUGGAGCGGGCGG [U18G G42C] | 0.0775
